Assay results published in patent US20070202116A1, “Treatment of micro-organism infection” (priority 2001, published 2007).
Like-named read-outs stand apart in the source and are kept apart here.

How the values were obtained:
[1] = tested on: EMRSA strains, vancomycin resistant subpopulations, Linzolid resistant strains; assay: Checkerboard MIC / FIC / FIX of vancomycin and Aurograb (Tables 9, 10); format: cell-based, S. aureus; conditions: for MIC In combination: VAN with Aurograb
Description: In order to determine the Minimum Inhibitory Concentration (MIC), the Fractional Inhibitory Concentration (FIC) and the FIX (fractional inhibitory index), the following was method was used.
The cells were diluted in Isosensitest Broth (Oxoid, UK) to give a final inoculum of […] cells per mL. […] To this was added exogenous Aurograb in the range 0.3-25 μg/ml in a checkerboard formation. A negative control series was also prepared containing Aurograb formulation buffer alone. Cultures were incubated for 48 hours at 37° C.
The minimum inhibitory concentration (MIC) was defined as the lowest concentration of agent at which no bacterial growth occurred and was determined by spectrophotometric evaluation of the lack of turbidity (growth) in culture.
Fractional inhibitory concentrations (FIC) and FIX values were calculated. Synergistic activity between the two agents was defined as an FIX value ≦0.5. Indifferent activity was defined as a value of 0.5-4, and a value of ≧4 defined antagonism.
The MIC (Alone) column indicates the minimum inhibitory concentration of the agent when administered alone. The MIC (In combination) column indicates the minimum inhibitory concentration of each drug when used in combination.

EMRSA-15 [2] = assay: Data Set 2: Aurograb dose ranging study in infected mice; format: in vivo, S. aureus; conditions: for Kidney log cfu per gram of tissue / Liver log cfu per gram of tissue / Spleen log cfu per gram of tissue: 48 hours; for Reduction in kidney bacterial counts: Experiment 1
Description: Aims: Dose ranging study for use of Aurograb versus S. aureus strain EMRSA-15.
Dose range is determined by comparing cfu (expressed as the log of the cfu per gram of tissue) for different organs at different doses.
[…] All mice terminated at 48 hours for culture of kidney, liver and spleen to determine organ viability counts.
Results: expressed as log cfu per gram of tissue
Experiment 1: S. aureus (1.5×10^7 cfu): EMRSA-15 (Table 5)
Experiment 2: S. aureus (9×10^6 cfu): clinical isolate EMRSA-15—low dose Aurograb (Table 6)

EMRSA-15 [3] = format: in vivo, S. aureus
Description: Methods: 60 female CD-1 mice (22-24 g) were given 1×10^7 cfu of EMRSA-15 as a 100 μl iv bolus.
All mice were terminated at 48 hours for culture of kidney, liver and spleen.
Results: expressed as log cfu per gram of tissue, unless the majority of mice (>5) were cleared (ie organs were culture-negative). N/A=not applicable. (Table 7)

EMRSA-15 [4] = format: in vivo, S. aureus; remark: listed apart in the source
Description: Method: 60 female CD-I mice (22-24 g) were given S. aureus (a fresh clinical isolate of EMRSA-15) at a dose of 8×10^7 cfu in a 100 μl iv bolus.
All mice were terminated at 48 hours for culture of kidney, liver and spleen. Mice fatalities prior to the 48 hour cull were not subject to organ colony counts.

[5] = Experiment 1, 1.5×10^7 cfu EMRSA-15, Aurograb 0.2 mg/kg single iv dose
[6] = Experiment 1, 1.5×10^7 cfu EMRSA-15, Aurograb 1 mg/kg single iv dose
[7] = Experiment 1, 1.5×10^7 cfu EMRSA-15, Aurograb 2 mg/kg single iv dose
[8] = Experiment 2, 9×10^6 cfu clinical isolate EMRSA-15, Aurograb 0.2 mg/kg
[9] = Experiment 2, doses as low as 0.2 mg
[10] = Group 4: Aurograb 2.0 mg/kg alone iv, 48 hours
[11] = Group 5: Aurograb 0.2 mg/kg alone iv, 10 mice
[12] = Group 5: Aurograb 0.2 mg/kg alone iv, 48 hours
[13] = Group 5: Aurograb 2.0 mg/kg alone iv, 48 hours

B1: Aurograb: human genetic recombinant antibody (scFv with histidine tag, SEQ ID NO: 2) binding GrfA, a staphylococcal ABC transporter protein (protein)
scFv: MAKVQLLQSATEVKKPGASVKVSCKAYGYTFTDYGITWVRQAPGQGLEWMGWISAYNGYTNYAQKFQDRITMTTDASTSTAYMELRSLRPDDTAVLYCARDREDASLLRDGHWGQGTLVTVSSGGGGSGGGGSGGGGSGGGGSETTLTQSPGTLSLSPGERATLSCRASQIVSSSYLAWYQQKPGQAPRLLIYGASSRATGIPDRFSGSGSGTDFTLTISKLEPEDFAVYYCQHYGSSSPWTSRPRDQSDIKRAAALEHHHHHH
modifications: histidine tag; human single chain (scFv) recombinant antibody
FIC ([1]; EMRSA strain 1): 0.006
MIC Alone ([1]; EMRSA strain 1): 125 µg/mL
MIC In combination ([1]; EMRSA strain 1): 0.75 µg/mL
FIC ([1]; EMRSA strain 1A): 0.05
MIC Alone ([1]; EMRSA strain 1A): 250 µg/mL
MIC In combination ([1]; EMRSA strain 1A): 12.5 µg/mL
FIC ([1]; EMRSA strain 2): 0.006
MIC Alone ([1]; EMRSA strain 2): 125 µg/mL
MIC In combination ([1]; EMRSA strain 2): 0.75 µg/mL
FIC ([1]; EMRSA strain 2A): 0.05
MIC Alone ([1]; EMRSA strain 2A): 250 µg/mL
MIC In combination ([1]; EMRSA strain 2A): 12.5 µg/mL
FIC ([1]; EMRSA strain 3): 0.012
MIC Alone ([1]; EMRSA strain 3): 250 µg/mL
MIC In combination ([1]; EMRSA strain 3): 3 µg/mL
FIC ([1]; EMRSA strain 4): 0.0026
MIC Alone ([1]; EMRSA strain 4): 125 µg/mL
MIC In combination ([1]; EMRSA strain 4): 0.325 µg/mL
FIC ([1]; EMRSA strain 5): 0.001
MIC Alone ([1]; EMRSA strain 5): 250 µg/mL
MIC In combination ([1]; EMRSA strain 5): 0.325 µg/mL
FIC ([1]; EMRSA strain 6): 0.0026
MIC Alone ([1]; EMRSA strain 6): 125 µg/mL
MIC In combination ([1]; EMRSA strain 6): 0.325 µg/mL
FIC ([1]; EMRSA strain 7): 0.0026
MIC Alone ([1]; EMRSA strain 7): 125 µg/mL
MIC In combination ([1]; EMRSA strain 7): 0.325 µg/mL
FIC ([1]; EMRSA strain 8): 0.0013
MIC Alone ([1]; EMRSA strain 8): 250 µg/mL
MIC In combination ([1]; EMRSA strain 8): 0.325 µg/mL
FIC ([1]; EMRSA strain 8A): 0.05
MIC Alone ([1]; EMRSA strain 8A): 250 µg/mL
MIC In combination ([1]; EMRSA strain 8A): 12.5 µg/mL
FIC ([1]; EMRSA strain 9): 0.006
MIC Alone ([1]; EMRSA strain 9): 125 µg/mL
MIC In combination ([1]; EMRSA strain 9): 0.75 µg/mL
FIC ([1]; EMRSA strain 10): 0.012
MIC Alone ([1]; EMRSA strain 10): 125 µg/mL
MIC In combination ([1]; EMRSA strain 10): 1.5 µg/mL
FIC ([1]; EMRSA strain 11): 0.006
MIC Alone ([1]; EMRSA strain 11): 125 µg/mL
MIC In combination ([1]; EMRSA strain 11): 0.75 µg/mL
FIC ([1]; EMRSA strain 11A): 0.05
MIC Alone ([1]; EMRSA strain 11A): 250 µg/mL
MIC In combination ([1]; EMRSA strain 11A): 12.5 µg/mL
FIC ([1]; EMRSA strain 12): 0.0013
MIC Alone ([1]; EMRSA strain 12): 250 µg/mL
MIC In combination ([1]; EMRSA strain 12): 0.325 µg/mL
FIC ([1]; EMRSA strain 12A): 0.003
MIC Alone ([1]; EMRSA strain 12A): 250 µg/mL
MIC In combination ([1]; EMRSA strain 12A): 0.75 µg/mL
FIC ([1]; EMRSA strain 13): 0.006
MIC Alone ([1]; EMRSA strain 13): 250 µg/mL
MIC In combination ([1]; EMRSA strain 13): 1.5 µg/mL
FIC ([1]; EMRSA strain 14): 0.012
MIC Alone ([1]; EMRSA strain 14): 125 µg/mL
MIC In combination ([1]; EMRSA strain 14): 1.5 µg/mL
FIC ([1]; EMRSA strain 15): 0.012
MIC Alone ([1]; EMRSA strain 15): 125 µg/mL
MIC In combination ([1]; EMRSA strain 15): 1.5 µg/mL
FIC ([1]; EMRSA strain 15A): 0.006
MIC Alone ([1]; EMRSA strain 15A): 250 µg/mL
MIC In combination ([1]; EMRSA strain 15A): 0.75 µg/mL
FIC ([1]; EMRSA strain 16): 0.012
MIC Alone ([1]; EMRSA strain 16): 250 µg/mL
MIC In combination ([1]; EMRSA strain 16): 1.5 µg/mL
FIC ([1]; EMRSA strain 17): 0.006
MIC Alone ([1]; EMRSA strain 17): 250 µg/mL
MIC In combination ([1]; EMRSA strain 17): 0.75 µg/mL
FIC ([1]; NARSA 1 (Hiramatsu)): 0.001
MIC Alone ([1]; NARSA 1 (Hiramatsu)): 250 µg/mL
MIC In combination ([1]; NARSA 1 (Hiramatsu)): 0.325 µg/mL
FIC ([1]; NARSA 2 (Hiramatsu)): 0.001
MIC Alone ([1]; NARSA 2 (Hiramatsu)): 250 µg/mL
MIC In combination ([1]; NARSA 2 (Hiramatsu)): 0.325 µg/mL
FIC ([1]; NARSA 12 (France)): 0.003
MIC Alone ([1]; NARSA 12 (France)): 250 µg/mL
MIC In combination ([1]; NARSA 12 (France)): 0.75 µg/mL
FIC ([1]; NARSA 17 (New York)): 0.001
MIC Alone ([1]; NARSA 17 (New York)): 250 µg/mL
MIC In combination ([1]; NARSA 17 (New York)): 0.325 µg/mL
FIC ([1]; NARSA 119 (Linezolid R)): 0.02
MIC Alone ([1]; NARSA 119 (Linezolid R)): 125 µg/mL
MIC In combination ([1]; NARSA 119 (Linezolid R)): 3 µg/mL
FIC ([1]; NARSA 120 (Linezolid R)): 0.02
MIC Alone ([1]; NARSA 120 (Linezolid R)): 125 µg/mL
MIC In combination ([1]; NARSA 120 (Linezolid R)): 3 µg/mL
FIC ([1]; NARSA 121 (Linezolid R)): 0.02
MIC Alone ([1]; NARSA 121 (Linezolid R)): 125 µg/mL
MIC In combination ([1]; NARSA 121 (Linezolid R)): 3 µg/mL
Kidney log cfu per gram of tissue (EMRSA-15 [2]; [5]): 8.5 ± 2.55 log cfu per gram of tissue
Liver log cfu per gram of tissue (EMRSA-15 [2]; [5]): 6.61 ± 3.03 log cfu per gram of tissue
Spleen log cfu per gram of tissue (EMRSA-15 [2]; [5]): 5.69 ± 1.16 log cfu per gram of tissue
Kidney log cfu per gram of tissue (EMRSA-15 [2]; [6]): 8.7 ± 2.6 log cfu per gram of tissue
Liver log cfu per gram of tissue (EMRSA-15 [2]; [6]): 5.40 ± 1.38 log cfu per gram of tissue
Spleen log cfu per gram of tissue (EMRSA-15 [2]; [6]): 5.33 ± 1.21 log cfu per gram of tissue
Kidney log cfu per gram of tissue (EMRSA-15 [2]; [7]): 7.62 ± 1.16 log cfu per gram of tissue
Liver log cfu per gram of tissue (EMRSA-15 [2]; [7]): 5.22 ± 1.39 log cfu per gram of tissue
Spleen log cfu per gram of tissue (EMRSA-15 [2]; [7]): 5.10 ± 1.29 log cfu per gram of tissue
Reduction in kidney bacterial counts (EMRSA-15 [2]; highest dose (2.0 mg/kg)): 0.8 log
Reduction in kidney bacterial counts (EMRSA-15 [2]; lower doses): no reduction
Kidney log cfu per gram of tissue (EMRSA-15 [2]; [8]): 7.14 ± 1.28 log cfu per gram of tissue
Liver log cfu per gram of tissue (EMRSA-15 [2]; [8]): 3.13 ± 0.44 log cfu per gram of tissue
Spleen log cfu per gram of tissue (EMRSA-15 [2]; [8]): 3.40 ± 0.64 log cfu per gram of tissue
Bacterial killing in the liver and spleen (EMRSA-15 [2]; [9]): evidence of bacterial killing
Reduction in viable staphylococci in the kidneys (EMRSA-15 [2]; [9]): no reduction
Drop in liver and spleen counts (EMRSA-15 [2]; single dose of 2.0 mg/kg in mice): approximately 2.0 log
Spleen, number of mice cleared (EMRSA-15 [3]; Group 4: Aurograb 2.0 mg/kg alone iv, 10 mice): 4
Kidney Log cfu/g of tissue (EMRSA-15 [3]; [10]): 7.30 ± 1.26 Log cfu/g of tissue
Spleen Log cfu/g of tissue (EMRSA-15 [3]; [10]): 3.54 ± 0.61 Log cfu/g of tissue
Liver, number of mice cleared (EMRSA-15 [3]; [11]): 2
Spleen, number of mice cleared (EMRSA-15 [3]; [11]): 3
Kidney Log cfu/g of tissue (EMRSA-15 [3]; [12]): 7.50 ± 1.53 Log cfu/g of tissue
Liver Log cfu/g of tissue (EMRSA-15 [3]; [12]): 4.28 ± 1.28 Log cfu/g of tissue
Spleen Log cfu/g of tissue (EMRSA-15 [3]; [12]): 3.91 ± 0.87 Log cfu/g of tissue
Mortality (EMRSA-15 [4]; Aurograb alone 2.0 mg/kg, 10 mice, untreated group 7 deaths): 4 deaths
Survivors at 24 h (n = 10) (EMRSA-15 [4]; Group 5: Aurograb 2.0 mg/kg alone iv, 8×10^7 cfu): 6
Kidney Log cfu/g tissue (EMRSA-15 [4]; [13]): 7.87 ± 1 Log cfu/g tissue
Liver Log cfu/g tissue (EMRSA-15 [4]; [13]): 5.18 ± 0.57 Log cfu/g tissue
Spleen Log cfu/g tissue (EMRSA-15 [4]; [13]): 5.53 ± 2.74 Log cfu/g tissue
